Like-named read-outs stand apart in the source and are kept apart here. Each block holds one binder with its values, some of them ahead of it.
Experiments:
Assay in all cases: two-hybrid library CCNG1;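 note: natural log of median RNA to DNA barcode read ratio; higher means stronger binding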
[1] = target: T1, P4A-bH
T1 chain: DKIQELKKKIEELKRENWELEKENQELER

[2] = target: T2, P8A-bH
T2 chain: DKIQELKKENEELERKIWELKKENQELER

[3] = target: T3, P6A-bH
T3 chain: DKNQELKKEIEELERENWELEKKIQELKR

[4] = target: T4, P9A-bH
T4 chain: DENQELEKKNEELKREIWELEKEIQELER

[5] = target: T5, P3A-bH
T5 chain: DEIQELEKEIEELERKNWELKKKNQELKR

[6] = target: T6, P7A-bH
T6 chain: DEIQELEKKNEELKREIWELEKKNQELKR

[7] = target: T7, P5A-bH
T7 chain: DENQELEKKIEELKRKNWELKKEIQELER

[8] = target: T8, 4H491-bA
T8 chain: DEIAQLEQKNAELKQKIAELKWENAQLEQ

[9] = target: T9, 4H342-bA
T9 chain: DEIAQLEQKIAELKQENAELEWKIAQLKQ

[10] = target: T10, 4H2944-bA
T10 chain: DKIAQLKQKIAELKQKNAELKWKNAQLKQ

[11] = target: T11, 4H48-bA
T11 chain: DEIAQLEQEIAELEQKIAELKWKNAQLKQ

[12] = target: T12, 4H235-bH
T12 chain: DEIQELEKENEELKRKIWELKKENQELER

[13] = target: T13, 4H932-bH
T13 chain: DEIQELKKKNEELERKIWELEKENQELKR

[14] = target: T14, 4H796-bH
T14 chain: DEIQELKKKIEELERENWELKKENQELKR

[15] = target: T15, 4H2585-bH
T15 chain: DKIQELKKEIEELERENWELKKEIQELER

[16] = target: T16, 4H3364-bH
T16 chain: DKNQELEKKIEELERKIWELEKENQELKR

[17] = target: T17, 4H730-bH
T17 chain: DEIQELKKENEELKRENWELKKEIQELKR

[18] = target: T18, 4H264-bH
T18 chain: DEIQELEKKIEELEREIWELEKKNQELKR

[19] = target: T19, 4H2518-bH
T19 chain: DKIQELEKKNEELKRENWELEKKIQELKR

[20] = target: T20, 4H3381-bH
T20 chain: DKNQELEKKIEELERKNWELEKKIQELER

[21] = target: T21, 4H2444-bH
T21 chain: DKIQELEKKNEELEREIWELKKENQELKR

[22] = target: T22, 4H349-bH
T22 chain: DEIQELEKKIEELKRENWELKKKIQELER

[23] = target: T23, 4H3297-bH
T23 chain: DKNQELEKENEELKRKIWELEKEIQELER

[24] = target: T24, 4H2859-bH
T24 chain: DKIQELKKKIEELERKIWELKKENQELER

[25] = target: T25, 4H949-bH
T25 chain: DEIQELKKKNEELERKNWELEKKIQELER

[26] = target: T26, 4H2931-bH
T26 chain: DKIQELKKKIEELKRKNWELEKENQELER

[27] = target: T27, 4H3041-bH
T27 chain: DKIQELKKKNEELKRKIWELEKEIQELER

[28] = target: T28, 4H56-bH
T28 chain: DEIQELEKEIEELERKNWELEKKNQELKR

[29] = target: T29, 4H2760-bH
T29 chain: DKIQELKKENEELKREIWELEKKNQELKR

[30] = target: T30, P9mS
T30 chain: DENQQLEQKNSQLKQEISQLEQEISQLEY

[31] = target: T31, P7mS
T31 chain: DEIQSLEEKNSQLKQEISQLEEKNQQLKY

[32] = target: T32, P8mS
T32 chain: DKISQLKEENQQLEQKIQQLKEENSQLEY

[33] = target: T33, P6mS
T33 chain: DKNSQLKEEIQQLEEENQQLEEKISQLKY

[34] = target: T34, P5mS
T34 chain: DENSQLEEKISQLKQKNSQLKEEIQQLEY

[35] = target: T35, P8SH
T35 chain: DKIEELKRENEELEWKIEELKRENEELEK

[36] = target: T36, 4H1831-bH
T36 chain: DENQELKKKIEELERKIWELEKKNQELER

[37] = target: T37, 4H968-bH
T37 chain: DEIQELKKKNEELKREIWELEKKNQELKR

[38] = target: T38, 4H2673-bH
T38 chain: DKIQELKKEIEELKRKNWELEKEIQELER

[39] = target: T39, 4H953-bH
T39 chain: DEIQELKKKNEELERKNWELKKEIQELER

[40] = target: T40, 4H3926-bH
T40 chain: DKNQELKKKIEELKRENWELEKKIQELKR

[41] = target: T41, 4H2586-bH
T41 chain: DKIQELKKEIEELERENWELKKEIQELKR

[42] = target: T42, 4H754-bH
T42 chain: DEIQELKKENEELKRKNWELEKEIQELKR

[43] = target: T43, 4H3010-bH
T43 chain: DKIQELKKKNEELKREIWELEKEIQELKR

[44] = target: T44, 4H3112-bH
T44 chain: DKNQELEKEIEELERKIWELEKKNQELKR

[45] = target: T45, 4H2702-bH
T45 chain: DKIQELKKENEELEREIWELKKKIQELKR

[46] = target: T46, 4H797-bH
T46 chain: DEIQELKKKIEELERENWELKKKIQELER

[47] = target: T47, 4H2627-bH
T47 chain: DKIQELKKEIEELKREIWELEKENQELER

[48] = target: T48, 4H626-bH
T48 chain: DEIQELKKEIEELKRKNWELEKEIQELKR

[49] = target: T49, 4H855-bH
T49 chain: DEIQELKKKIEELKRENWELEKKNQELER

[50] = target: T50, 4H918-bH
T50 chain: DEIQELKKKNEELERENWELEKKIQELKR

[51] = target: T51, 4H3427-bH
T51 chain: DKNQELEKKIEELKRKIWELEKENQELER

[52] = target: T52, 4H683-bH
T52 chain: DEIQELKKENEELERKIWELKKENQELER

[53] = target: T53, 4H4073-bH
T53 chain: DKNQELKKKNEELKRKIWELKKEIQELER

[54] = target: T54, 4H346-bH
T54 chain: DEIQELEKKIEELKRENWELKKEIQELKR

[55] = target: T55, 4H780-bH
T55 chain: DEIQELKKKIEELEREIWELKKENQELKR

[56] = target: T56, O4
T56 chain: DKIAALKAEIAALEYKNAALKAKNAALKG

[57] = target: T57, 4H575-bH
T57 chain: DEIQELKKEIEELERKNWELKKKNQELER

[58] = target: T58, 4H457-bH
T58 chain: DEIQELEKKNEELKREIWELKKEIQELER

[59] = target: T59, P8A
T59 chain: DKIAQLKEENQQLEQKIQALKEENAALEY

[60] = target: T60, P4A
T60 chain: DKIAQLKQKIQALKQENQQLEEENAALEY

[61] = target: T61, P3A
T61 chain: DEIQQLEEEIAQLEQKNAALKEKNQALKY

[62] = target: T62, P9A
T62 chain: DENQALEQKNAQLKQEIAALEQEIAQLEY

[63] = target: T63, P5A
T63 chain: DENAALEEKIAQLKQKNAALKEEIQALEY

[64] = target: T64, P7A
T64 chain: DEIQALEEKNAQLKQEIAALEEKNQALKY

[65] = target: T65, P6A
T65 chain: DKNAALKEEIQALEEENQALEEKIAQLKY

[66] = target: T66, 4H3632-bN
T66 chain: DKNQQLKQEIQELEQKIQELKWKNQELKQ

[67] = target: T67, P1mSN
T67 chain: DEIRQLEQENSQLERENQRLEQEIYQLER

[68] = target: T68, 4H496-bN
T68 chain: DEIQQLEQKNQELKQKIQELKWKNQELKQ

interaction score [1]: 0.539
interaction score [2]: 0.132
interaction score [3]: -0.802
interaction score [4]: -1.02
interaction score [5]: -1.95
interaction score [6]: -0.557
interaction score ([7]; mean of both orientations): -1.23
Binder: DKIQELKKKNEELKRKNWELKKKIQELKR [P2A-bH]

interaction score [8]: -0.569
interaction score [9]: 1.77
interaction score [10]: -0.797
interaction score [11]: -1.05
Binder: DKIAQLKQKIAELKQKNAELKWKNAQLKQ [4H2944-bA]

interaction score [12]: 0.982
interaction score [13]: -0.443
interaction score [14]: -0.693
interaction score [15]: -1.55
interaction score [16]: -0.442
interaction score [17]: -0.176
interaction score [18]: -0.718
interaction score [10]: -0.835
interaction score [19]: -0.135
interaction score [20]: 0
interaction score [21]: 0.0109
interaction score [22]: 0.108
interaction score [23]: 0.0762
interaction score [24]: 0.589
interaction score [25]: -0.845
interaction score [26]: -0.301
interaction score [27]: 0.0126
interaction score [28]: 0.0558
interaction score [29]: 1.12
Binder: DEIQELEKENEELKRKIWELKKENQELER [4H235-bH]

interaction score [30]: -2.82
interaction score [31]: -1.25
interaction score [32]: -1.17
interaction score [33]: -0.081
interaction score [34]: -1.66
Binder: DENSQLEEKISQLKQKNSQLKEEIQQLEY [P5mS]

interaction score [35]: -0.00526
Binder: DKIEELKRENEELEWKIEELKRENEELEK [P8SH]

interaction score [36]: -0.611
interaction score [37]: -2.37
interaction score [38]: 0.349
interaction score [39]: -0.749
interaction score [40]: -0.549
interaction score [41]: -1.54
interaction score [42]: 0.0674
interaction score [43]: 1.32
interaction score [44]: -0.582
interaction score [45]: 0.297
interaction score [46]: -1.12
interaction score [47]: 1.87
interaction score [48]: 1.02
interaction score [49]: -0.184
interaction score [50]: -0.221
interaction score [51]: 0.584
interaction score [52]: -0.934
interaction score [53]: -0.216
interaction score [54]: 0.11
interaction score [55]: 0.511
interaction score [56]: -1.48
interaction score [57]: -1.81
interaction score [58]: 0.724
Binder: DENQELKKKIEELERKIWELEKKNQELER [4H1831-bH]

interaction score [1]: 1.77
interaction score [2]: -1.03
interaction score [3]: 0.553
interaction score [4]: 0.465
interaction score [5]: -0.68
interaction score [6]: 0.468
interaction score [7]: 0.779
Binder: DEIQELEKEIEELERKNWELKKKNQELKR [P3A-bH]

interaction score [59]: -0.435
interaction score [60]: 2.6
interaction score [61]: -0.882
interaction score [62]: 0.0927
interaction score [63]: -0.901
interaction score [64]: -0.23
interaction score [65]: -0.905
Binder: DEIQQLEEEIAQLEQKNAALKEKNQALKY [P3A]

interaction score [1]: -0.5
interaction score [2]: -0.232
interaction score [3]: -0.616
interaction score [4]: -1.36
interaction score [5]: -1.59
interaction score [6]: -0.716
interaction score [7]: -0.798
Binder: DEIQELEKENEELERENWELEKEIQELER [P1A-bH]

interaction score [66]: 1.05
interaction score [67]: -0.649
interaction score [68]: -0.174
Binder: DKNQQLKQEIQELEQKIQELKWKNQELKQ [4H3632-bN]
